Where no end group is shown, it is not given here. The star is where a group is joined. Biotin = O=C1N[C@H]2[C@H](CS[C@H]2CCCCC(=O)*)N1
What was measured:
DNA-PKcs [1] = molecular target: T1, DNA-PKcs (Homo sapiens, UniProt P78527); experiment: Peptide interaction assay with purified DNA-PKcs; format: binding; set-up: The starting material for purification of DNA-PKcs was HeLa NE; host or cells: HeLa nuclear extract; purified in house over Q Sepharose, heparin agarose, phenyl Sepharose and Mono-S; conditions: 50 mM and 100 mM KCl; streptavidin paramagnetic beads; silver-staining
Experimental: 5 Peptides with the sequence Ser-Gly-Ser-Gly (SEQ ID NO:10) as a linker to 12 amino acid residues (SEQ ID NOS:1 and 12-15) derived from the sequence of Ku80 (see FIG. 5) were generated with a biotin moiety at the N-terminus (Khiron Technologies). Each peptide (2×10^11 moles) was incubated with either 400 ng (˜10^12 moles) of purified DNA-PKcs or 100 μg of crude HeLa NE in 100 μl (final) volume of Z′ buffer (see above for buffer composition). Binding reactions were incubated for 2.75 hours at 4° C., then a 100 μl suspension of para-magnetic beads, containing 1:5 dilution of Dynabeads (Dynal) in Z′ buffer, was added for a final 0.25 hour incubation. Dynabeads are conjugated with Streptavidin. The bead-protein complexes were be retrieved from the solution using a magnet and washed 5 times with 0.5 ml of Buffer X (see above for buffer composition). […]
The inventors synthesised a series of peptides (Peptides A-E, SEQ ID NOS:1 and 12-15) derived in sequence from the extreme C-terminus of Ku80 (residues 609 to 733, SEQ ID NO:11: see FIG. 5 and Materials and Methods). […] The beads were recovered using a magnet, washed extensively in buffer containing the same concentration of KCl as the incubation buffer X (25 mM HEPES pH 7.5, 50 mM/100 mM KCl, 2 mM MgCl2, 0.4% NP-40), and the bound protein eluted in SDS-PAGE sample buffer, resolved on a 6% polyacrylamide gel and detected using silver-staining.

DNA-PKcs [2] = molecular target: T1, DNA-PKcs; experiment: Peptide interaction assay with crude HeLa cell nuclear extract; format: binding; set-up: incubated with ˜100 μg (10 μl) of HeLa Cell nuclear extract (NE); host or cells: HeLa cell nuclear extract
Experimental: (§1) 5 Peptides with the sequence Ser-Gly-Ser-Gly (SEQ ID NO:10) as a linker to 12 amino acid residues (SEQ ID NOS:1 and 12-15) derived from the sequence of Ku80 (see FIG. 5) were generated with a biotin moiety at the N-terminus (Khiron Technologies). Each peptide (2×10^11 moles) was incubated with either 400 ng (˜10^12 moles) of purified DNA-PKcs or 100 μg of crude HeLa NE in 100 μl (final) volume of Z′ buffer (see above for buffer composition). Binding reactions were incubated for 2.75 hours at 4° C., then a 100 μl suspension of para-magnetic beads, containing 1:5 dilution of Dynabeads (Dynal) in Z′ buffer, was added for a final 0.25 hour incubation. Dynabeads are conjugated with Streptavidin. The bead-protein complexes were be retrieved from the solution using a magnet and washed 5 times with 0.5 ml of Buffer X (see above for buffer composition). Proteins retained on the beads were eluted in SDS gel-loading buffer and subjected to polyacrylamide gel eletrophoresis and silver staining.
The ability of each of the five peptides to retrieve proteins from a crude unfractionated HeLa cell nuclear extract was determined. […] Any proteins remaing bound to the peptide/beads was eluted in SDS-PAGE buffer, resolved on a 6% polyacrylamide gel and detected with silver-staining. […]

[3] = molecular target: T2, DNA-dependent protein kinase catalytic subunit (DNA-PKcs), human, from HeLa cell nuclear extract (human, UniProt P78527 1-4128); experiment: biotinylated peptide with purified DNA-PKcs, streptavidin magnetic beads, 50 mM or 100 mM KCl, silver stain
T2 construct: mature; Used either within crude HeLa nuclear extract or as an essentially homogeneous preparation (about 1 Ku per 840 DNA-PKcs molecules); also called purified DNA-PKcs; homogeneous DNA-PKcs
Experimental: as §1, with “12–15)” for “12-15)”, “(2 ×10^11” for “(2×10^11”, “(~10^12” for “(˜10^12”, “Z'” for “Z′”

T2 sequence (P78527 whole entry): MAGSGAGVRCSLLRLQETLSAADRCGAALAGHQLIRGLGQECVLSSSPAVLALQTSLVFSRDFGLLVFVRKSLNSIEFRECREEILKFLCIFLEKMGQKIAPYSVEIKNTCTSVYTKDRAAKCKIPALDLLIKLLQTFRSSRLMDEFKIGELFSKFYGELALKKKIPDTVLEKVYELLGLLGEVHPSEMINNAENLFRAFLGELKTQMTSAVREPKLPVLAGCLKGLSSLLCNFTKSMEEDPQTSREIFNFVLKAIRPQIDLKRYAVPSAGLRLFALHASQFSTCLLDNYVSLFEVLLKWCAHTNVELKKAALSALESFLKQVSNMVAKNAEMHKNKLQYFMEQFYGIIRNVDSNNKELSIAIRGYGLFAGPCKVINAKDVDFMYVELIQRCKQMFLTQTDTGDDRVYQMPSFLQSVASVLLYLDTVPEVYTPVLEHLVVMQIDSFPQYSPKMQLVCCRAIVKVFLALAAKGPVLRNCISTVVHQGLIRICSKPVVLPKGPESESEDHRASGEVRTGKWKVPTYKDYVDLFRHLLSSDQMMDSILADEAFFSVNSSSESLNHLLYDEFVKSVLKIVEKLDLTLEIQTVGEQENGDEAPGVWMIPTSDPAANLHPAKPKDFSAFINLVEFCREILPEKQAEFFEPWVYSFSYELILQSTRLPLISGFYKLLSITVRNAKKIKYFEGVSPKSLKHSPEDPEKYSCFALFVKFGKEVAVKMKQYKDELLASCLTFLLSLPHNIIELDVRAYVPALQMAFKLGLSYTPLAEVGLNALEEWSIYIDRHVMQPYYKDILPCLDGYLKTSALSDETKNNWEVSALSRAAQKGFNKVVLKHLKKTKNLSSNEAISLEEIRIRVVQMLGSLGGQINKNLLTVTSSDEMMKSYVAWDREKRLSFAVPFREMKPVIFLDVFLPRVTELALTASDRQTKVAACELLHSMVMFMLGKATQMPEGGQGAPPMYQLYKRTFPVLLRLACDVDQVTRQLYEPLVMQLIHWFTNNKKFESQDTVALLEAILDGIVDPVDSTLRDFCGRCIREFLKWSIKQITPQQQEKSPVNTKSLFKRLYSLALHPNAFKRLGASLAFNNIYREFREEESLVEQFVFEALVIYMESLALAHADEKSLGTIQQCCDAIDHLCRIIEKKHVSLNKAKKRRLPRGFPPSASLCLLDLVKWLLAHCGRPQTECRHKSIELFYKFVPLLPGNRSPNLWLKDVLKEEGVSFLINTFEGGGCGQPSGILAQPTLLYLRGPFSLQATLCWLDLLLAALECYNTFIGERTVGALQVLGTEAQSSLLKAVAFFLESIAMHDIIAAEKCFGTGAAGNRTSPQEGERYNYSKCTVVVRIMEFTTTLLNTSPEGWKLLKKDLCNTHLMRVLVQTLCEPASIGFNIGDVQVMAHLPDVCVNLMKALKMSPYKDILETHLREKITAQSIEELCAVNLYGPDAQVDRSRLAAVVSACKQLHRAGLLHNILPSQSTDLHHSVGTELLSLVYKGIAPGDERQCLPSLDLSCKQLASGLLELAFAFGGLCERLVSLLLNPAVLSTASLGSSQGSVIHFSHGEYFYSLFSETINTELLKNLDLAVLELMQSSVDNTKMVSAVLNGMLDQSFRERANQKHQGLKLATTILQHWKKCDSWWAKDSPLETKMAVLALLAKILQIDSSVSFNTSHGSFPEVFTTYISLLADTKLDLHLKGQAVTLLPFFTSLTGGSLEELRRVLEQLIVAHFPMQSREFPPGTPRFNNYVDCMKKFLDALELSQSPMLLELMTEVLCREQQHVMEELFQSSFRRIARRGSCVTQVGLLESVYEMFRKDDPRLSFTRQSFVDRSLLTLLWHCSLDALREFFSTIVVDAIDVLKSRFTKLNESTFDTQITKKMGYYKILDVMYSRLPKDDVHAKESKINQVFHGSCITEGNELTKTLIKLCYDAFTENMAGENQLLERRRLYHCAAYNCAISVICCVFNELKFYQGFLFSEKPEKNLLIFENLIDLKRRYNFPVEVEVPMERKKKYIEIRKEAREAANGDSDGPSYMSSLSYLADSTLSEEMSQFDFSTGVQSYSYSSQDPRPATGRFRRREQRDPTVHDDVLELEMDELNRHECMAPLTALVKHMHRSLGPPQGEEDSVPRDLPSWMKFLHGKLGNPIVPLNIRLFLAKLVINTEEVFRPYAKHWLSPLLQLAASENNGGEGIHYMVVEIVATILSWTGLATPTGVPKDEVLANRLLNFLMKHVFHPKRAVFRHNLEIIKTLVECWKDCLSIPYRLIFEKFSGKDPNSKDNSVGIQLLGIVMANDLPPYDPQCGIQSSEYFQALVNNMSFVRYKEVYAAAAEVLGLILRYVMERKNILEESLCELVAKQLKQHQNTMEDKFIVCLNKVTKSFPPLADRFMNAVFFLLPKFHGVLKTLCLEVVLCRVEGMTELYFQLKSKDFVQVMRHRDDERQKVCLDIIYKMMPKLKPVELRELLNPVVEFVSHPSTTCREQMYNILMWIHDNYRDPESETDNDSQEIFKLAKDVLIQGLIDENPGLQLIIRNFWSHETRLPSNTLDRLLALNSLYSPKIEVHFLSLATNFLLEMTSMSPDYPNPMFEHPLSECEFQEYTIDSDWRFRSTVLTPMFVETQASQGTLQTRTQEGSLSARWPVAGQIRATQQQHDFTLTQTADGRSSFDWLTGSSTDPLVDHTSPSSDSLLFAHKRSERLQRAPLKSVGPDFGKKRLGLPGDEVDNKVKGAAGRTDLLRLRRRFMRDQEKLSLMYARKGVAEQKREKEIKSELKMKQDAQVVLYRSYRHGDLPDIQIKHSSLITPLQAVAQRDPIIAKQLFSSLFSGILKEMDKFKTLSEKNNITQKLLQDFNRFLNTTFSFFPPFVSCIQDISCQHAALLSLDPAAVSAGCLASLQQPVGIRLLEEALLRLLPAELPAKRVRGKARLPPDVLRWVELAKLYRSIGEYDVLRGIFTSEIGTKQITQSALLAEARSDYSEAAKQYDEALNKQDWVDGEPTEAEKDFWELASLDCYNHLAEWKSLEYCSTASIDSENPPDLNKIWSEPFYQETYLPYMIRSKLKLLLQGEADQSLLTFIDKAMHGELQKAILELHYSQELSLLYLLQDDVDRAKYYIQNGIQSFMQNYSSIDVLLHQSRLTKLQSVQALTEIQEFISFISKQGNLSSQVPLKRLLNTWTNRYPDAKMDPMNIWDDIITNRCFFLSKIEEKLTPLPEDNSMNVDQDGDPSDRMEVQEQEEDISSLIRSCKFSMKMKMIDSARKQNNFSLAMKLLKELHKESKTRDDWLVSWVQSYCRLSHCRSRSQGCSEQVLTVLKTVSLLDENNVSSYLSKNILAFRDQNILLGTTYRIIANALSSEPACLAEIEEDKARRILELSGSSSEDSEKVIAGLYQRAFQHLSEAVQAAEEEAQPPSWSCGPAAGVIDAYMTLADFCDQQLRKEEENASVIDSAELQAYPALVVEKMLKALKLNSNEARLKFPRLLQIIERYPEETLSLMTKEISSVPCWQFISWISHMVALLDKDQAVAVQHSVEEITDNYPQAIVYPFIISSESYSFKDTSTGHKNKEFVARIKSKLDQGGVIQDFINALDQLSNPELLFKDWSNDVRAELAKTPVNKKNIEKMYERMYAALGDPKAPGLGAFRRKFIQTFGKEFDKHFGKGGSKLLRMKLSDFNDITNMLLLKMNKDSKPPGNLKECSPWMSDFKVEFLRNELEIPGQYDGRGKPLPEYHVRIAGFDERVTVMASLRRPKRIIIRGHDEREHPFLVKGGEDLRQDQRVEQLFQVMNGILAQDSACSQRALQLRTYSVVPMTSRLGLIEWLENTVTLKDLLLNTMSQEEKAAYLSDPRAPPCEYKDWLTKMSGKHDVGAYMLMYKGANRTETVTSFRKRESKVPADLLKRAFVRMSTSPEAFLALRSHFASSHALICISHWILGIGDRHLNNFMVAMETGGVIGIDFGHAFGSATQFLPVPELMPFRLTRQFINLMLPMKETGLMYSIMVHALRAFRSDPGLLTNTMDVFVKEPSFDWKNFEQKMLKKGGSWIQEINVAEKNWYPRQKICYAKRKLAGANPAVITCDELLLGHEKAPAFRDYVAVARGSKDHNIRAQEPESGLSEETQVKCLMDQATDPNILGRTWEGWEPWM
T1 sequence (P78527 whole entry): as above

binding of purified DNA-PKcs by biotinylated peptide (DNA-PKcs [1])	depletion of DNA-PKcs from HeLa nuclear extract (DNA-PKcs [2]; additional studies)	binding result [3]	Molecule	proteins retrieved from HeLa nuclear extract by biotinylated peptide (DNA-PKcs [2]; 50 mM KCl, streptavidin magnetic beads, silver-staining, western blotting)
interacts directly with DNA-PKcs	60-70%		EGGDVDDLLDMI [Peptide E]	affinity purified predominantly a single protein species of high molecular weight
		no binding	Biotin-SGSGEEAKKFLAPKDK [Peptide A (biotin-Ser-Gly-Ser-Gly linked to 12 residues of the Ku80 C-terminus)]	
		no binding	Biotin-SGSGPSGDTAAVFEEG [Peptide C (biotin-Ser-Gly-Ser-Gly linked to 12 residues of the Ku80 C-terminus)]	
		no binding	Biotin-SGSGLAPKDKPSGDTA [Peptide B (biotin-Ser-Gly-Ser-Gly linked to 12 residues of the Ku80 C-terminus)]	
		no binding	Biotin-SGSGAVFEEGGDVDDL [Peptide D (biotin-Ser-Gly-Ser-Gly linked to 12 residues of the Ku80 C-terminus)]	

Reference: patent US6753151B1, “Interactions of Ku polypeptides and applications thereof” (Kudos Pharmaceuticals Limited, priority 1999, dated 2004)
